{"source": "the DeepSol protein solubility set"}
{"test": "soluble on expression in E. coli; label from the status in PepcDB or PDB records"}
{"sequence": "SNAMLDITTITRQNVTSVVGYYSDAKDDYYSKDSSFTSWQGTGAEALGLSGDVESARFKELLVGEIDTFTHMQRHVGDAKKERLGYDLTFSAPKGVSMQALIHGDKTIIEAHEKAVAAAVREAEKLAQARTTRQGKSVTQNTNNLVVATFRHETSRALDPDLHTHAFVMNMTQREDGQWRALKNDELMRNKMHLGDVYKQELALELTKAGYELRYNSKNNTFDMAHFSDEQIRAFSRRSEQIEKGLAAMGLTRETADAQTKSRVSMATREKKTEHSREEIHQEWASRAKTLGIDFDNREWQG", "soluble on expression in E. coli": "soluble"}
{"sequence": "SNAMNVWQVVGYKHSGKTTLMEKWVAAAVREGWRVGTVKHHGHGGEPARPEGVDSVRHERAGAVATAVEGDGLLQLHLRRPLWRLDDVLALYAPLRLDLVLVEGYKQERHPKVVLVRSEEDWASLQHLANIRAVIAWEPLEGPLAHPVFSLADDDEYIPWLMNEVRTRT", "soluble on expression in E. coli": "soluble"}
{"sequence": "SNAMSMAYEEYMRQLVVPMRRELTGAGFEELTTAEEVENFMEKAEGTTLVVVNSVCGCAAGLARPAATQAVLQNDKTPDNTVTVFAGQDKEATAKMREYFTGAAPSSPSMALLKGKEVVHFIPRHEIEGHDMEEIMKNLTAAFDAHC", "soluble on expression in E. coli": "soluble"}
{"sequence": "SNAVRGFLIVGNKAFTQPFSLNDLPGAGRMDVLCRCTSQALFISHGIRRDVEVYLLLLGPPSPPKSILIKGDEVRRMSPDERNVAGHIKKALAVECGKSWKKVHSGVYVSRKGLEELIEELSEKYSIIYLKEDGVDISNAQLPPNPLFVIGDHEGLTEEQEKVVERYAALKLSLSPLSLLAEQCVVIAHHHLDRLQF", "soluble on expression in E. coli": "soluble"}
{"sequence": "SNAVTATQLAAKATTLYYLHKQAMTDEVSLLLEQALQLEPYNEAALSLIANDHFISFRFQEAIDTWVLLLDSNDPNLDRVTIIESINKAKKLM", "soluble on expression in E. coli": "soluble"}
{"sequence": "SNGSSVASTSPSVKCKEDQGLNGHEEKENPFAEYMWMENEEDFNRQVEEELQEQDFLDRCFQEMLDEEDQDWFIPARDLPQAVGHLQQQLNGLSVGDSHESEDILSKSNLNPDAKEFVPGVKY", "soluble on expression in E. coli": "soluble"}
{"sequence": "SNQEKLAKLQAQVRIGGKGTARRKKKVVHRTATADDKKLQSSLKKLAVNNIAGIEEVNMIKDDGTVIHFNNPKVQASLSANTFAITGHAEAKPITEMLPGILSQLGADSLTSLRKLAEQFPRQVLDSKAPKPEDIDEEDDDVPDLVENFDEASKNEAN", "soluble on expression in E. coli": "soluble"}
{"sequence": "SNSALYNVDAGHRAVIFDRFRGVQDIVVGEGTHFLIPWVQKPIIFDCRSRPRNVPVITGSKDLQNVNITLRILFRPVASQLPRIYTSIGEDYDERVLPSITTEILKSVVARFDAGELITQRELVSRQVSDDLTERAATFGLILDDVSLTHLTFGKEFTEAVEAKQVAQQEAERARFVVEKAEQQKKAAIISAEGDSKAAELIANSLATAGDGLIELRKLEAAEDIAYQLSRSRNITYLPAGQSVLLQLPQ", "soluble on expression in E. coli": "soluble"}
{"sequence": "SNSSPPPANSANGDTTNNGENGQDLNLNFLDKIRLSTKRDAKEDEGEELPTELNTINSAGGFLVVSPDKLSVKYTNTNLHGHDVGVVQANKPAPIKCLTYYFEIFVKDSGIKGQIAIGFTKESFKMRRQPGWEVNSCGYHGDDGYLYRGQGKGEPFGPKFTKDDAVGGGINYASQEFFFTKNGTIVGKIPKDIRGHLFPTVAVHSQNEEVLVNFGKKKFAFDIKGYEASERNKQQLAIEKISIPPNIGYGLVKTYLLHYGYEETLDAFNLATKNTVPPIHIDQENAIDEDDSSYALKQRKNLRQLVRNGEIDTALAELQKLYPQIVQDDKSVVCFLLHCQKFIELVRVGKLEEGVNYGRLELAKFVGLTGFQDIVEDCFALLAYEKPEESSVWYFLEDSQRELVADAVNAAILSTNPNKKDVQRSCHLQSHLEKLLRQLTVCCLERRSLNGDQGETFRLRHVLNNNR", "soluble on expression in E. coli": "soluble"}
{"sequence": "SNVFARSSVLAAEMIDVFDRTHTEKELVFQSKELCRDFIHSRITREGLSWSKVELDLPEPRGVLVDVSVVLLKLGDELECMRPYVYRNIAKQLNISVSVEAVVSDAFLSVATEVIAMGITWGKVVAIYAVAAGLAVDCVRLGHPVMVHTIVDSLGEFVRRSLVPWLKKRGGWVDILKCVVNMDSRAHVHWLSTAVLTWREFIKTMYVYLTK", "soluble on expression in E. coli": "soluble"}
{"sequence": "SPDHLFPPKPNTRVVVAKFPMGAVTVEDLLVLGKPFGTVVKHLVLPAKGFLEFSAHKEAVNMVNHFQQKPAFVKDTRVGLYLSPRVEGIHSPPKYDEPVPKRLKRTNNPSVVCFSHLPPGEDNQAEVLELAAMFGEVWQSKFLDGKALIEMVDWRDADIMVKYYYSNPLKIQGKSIKVTMSYIKSLREMPGELTPRKSDSSKHSRQKEESSVKDKADDTNQESSEKETKTIKTPEQSQEEGVQLEEGTDHYNNLKLKHAVEEQADGQPDGE", "soluble on expression in E. coli": "soluble"}
{"sequence": "SPMANSGPLCCTICHERLEDTHFVQCPSVPSHKFCFPCSRESIKAQGATGEVYCPSGEKCPLVGSNVPWAFMQGEIATIL", "soluble on expression in E. coli": "soluble"}
{"sequence": "SQPKVPEWVNTPSTCCLKYYEKVLPRRLVVGYRKALNCHLPAIIFVTKRNREVCTNPNDDWVQEYIKDPNLPLLPTRNLSTVKIITAKNGQPQLLNSQ", "soluble on expression in E. coli": "soluble"}
{"sequence": "SQTREDSVYLAKLAEQAERYEEMVENMKAVASSGQELSVEERNLLSVAYKNVIGARRASWRIVSSIEQKEESKEKSEHQVELIRSYRSKIETELTKISDDILSVLDSHLIPSATTGESKVFYYKMKGDYHRYLAEFSSGDAREKATNSSLEAYKTASEIATTELPPTHPIRLGLALNFSVFYYEIQNSPDKACHLAKQAFDDAIAELDTLSEESYKDSTLIMQLLRDNLTLWTSDISESGQEDQQQQQQQQQQQQQQQQQAPAEQTQGEPTK", "soluble on expression in E. coli": "soluble"}
{"sequence": "SRENLGRIQFSVGYNFQESTLTVKIMKAQELPAKDFSGTSDPFVKIYLLPDKKHKLETKVKRKNLNPHWNETFLFEGFPYEKVVQRILYLQVLDYDRFSRNDPIGEVSIPLNKVDLTQMQTFWKDLKP", "soluble on expression in E. coli": "soluble"}
{"sequence": "SSEASRDDYKIQSFDAQTQQLLKTALKDPGAVDLERVANVIVDHSLQDCVFSKEAGRMCYAIIQAESKQAGQSVFRRGLLNRLQKEYDAREQLRACSLQGWVCYVTFICNIFDYLRVNNMPMMALVNPVYDCLFQLAQPESLSREEEVDCLVLQLHRVGEQLEKMNGQRMDELFILIRDGFLLPTDLSSLARLLLLEMIEFRAAGWKTTPAAHKYYYSEVSD", "soluble on expression in E. coli": "soluble"}
{"sequence": "SSGGGTETPVACDAAQGGKKRDSLGTPGAAHLIIKDLGEIHSRLLDHRPVTQGEIRYFVKEFEEKRGLRELRVLKNLENTIQETNECLLPKCRETMECGLGETLQRLQAANDSICRLQQREQERKKVINDYLTASEKRRLVQWEEFVSGQPQRRAEVDEEHRRAVERLREQYAAMEKDLAKFSTF", "soluble on expression in E. coli": "soluble"}
{"sequence": "SSGRSVRAETRSRAKDDIKKVMAAIEKVRKWEKKWVTVGDTSLRIFKWVPVTDSKEKEKSKSNSSAAREPNGFPSDASANSSLLLEFQDENSNQSSVSDVYQLKVDSSTNSSPSPQQSESLSPAHTSDFRTDDSQPPTLGQEILEEPSLPSSEVADEPPTLTKEEPVPLETQVVEEEEDSGAPPLKRFCVDQPTVPQTASES", "soluble on expression in E. coli": "soluble"}
{"sequence": "SSLVRRIISTAKAPAAIGPYSQAVLVDRTIYISGQLGMDPASGQLVPGGVVEEAKQALTNIGEILKAAGCDFTNVVKATVLLADINDFSAVNDVYKQYFQSSFPARAAYQVAALPKGGRVEIEAIAVQGPLTTASL", "soluble on expression in E. coli": "soluble"}
{"sequence": "SSMTSRYKRSIESATNVATELSKGNYDARTYGGYIRRSDKLGHAMNSLAIDLMEMTRTQEMQRDRLLTVIENIGSGLIMIDGRGFINLVNRSYAKQFHINPNHMLRRLYHDAFEHEEVIQLVEDIFMTETKKCKLLRLPIKIERRYFEVDGVPIMGPDDEWKGIVLVFHDMTETKKLEQMRKDFVANVSHELKTPITSIKGFTETLLDGAMEDKEALSEFLSIILKESERLQSLVQDLLDLSKIEQQNFTLSIETFEPAKMLGEIETLLKHKADEKGISLHLNVPKDPQYVSGDPYRLKQVFLNLVNNALTYTPEGGSVAINVKPREKDIQIEVADSGIGIQKEEIPRIFERFYRVDKDRSRNSGGTGLGLAIVKHLIEAHEGKIDVTSELGRGTVFTVTLKRAAEKSA", "soluble on expression in E. coli": "not soluble"}
{"sequence": "SSSKFQQVEQDVKAIEVSLSARIGVSVLDTQNGEYWDYNGNQRFPLTSTFKTIACAKLLYDAEQGKVNPNSTVEIKKADLVTYSPVIEKQVGQAITLDDACFATMTTSDNTAANIILSAVGGPKGVTDFLRQIGDKETRLDRIEPDLNEGKLGDLRDTTTPKAIASTLNKFLFGSALSEMNQKKLESWMVNNQVTGNLLRSVLPAGWNIADRSGAGGFGARSITAVVWSEHQAPIIVSIYLAQTQASMEERNDAIVKIGHSIFDVYTSQSR", "soluble on expression in E. coli": "soluble"}
{"sequence": "SSSLHKSRIADFQDVLKEPSIALEKLRELSFSGIPCEGGLRCLCWKILLNYLPLERASWTSILAKQRELYAQFLREMIIQPGIAKANMGVSREDVTFEDHPLNPNPDSRWNTYFKDNEVLLQIDKDVRRLCPDISFFQRATDYPCLLILDPQNEFETLRKRVEQTTLKSQTVARNRSGVTNMSSPHKNSAPSSLNEYEVLPNGCEAHWEVVERILFIYAKLNPGIAYVQGMNEIVGPLYYTFATDPNSEWKEHAEADTFFCFTNLMAEIRDNFIKSLDDSQCGITYKMEKVYSTLKDKDVELYLKLQEQNIKPQFFAFRWLTLLLSQEFLLPDVIRIWDSLFADDNRFDFLLLVCCAMLMLIREQLLEGDFTVNMRLLQDYPITDVCQILQKAKELQDSK", "soluble on expression in E. coli": "soluble"}
{"sequence": "SSTHGSRFPLCGGRRDHKGLTHIFNPPPKRFESILEGLFGPALLKDLSLFKDCEPESISDWTFDENCLFCCLRRDKVKGHLVGLDEPASGAGQEALLKQEQAKIIRFERQAEEFLNAVFYRKDSPWVSDPNIPLVAREIMQRMIQQFAAEYTSKNSSTQDPSQPNSTKNQSLPKASPVTTSPTAATTQNPVLSKLLMADQDSPLDLTVRKSQSEPSEQDGVLDLSTKKSPCAGSTSLSHSPGCSSTQGNGRPGRPSQYRPDGLRSGDGVPPRSLQDGTREGFGHSTSLKVPLARSLQISEELLSRNQLSTAASLGPSGLQNHGQHLILSREASWAKPHYEFNLSRMKFRGNGALSNISDLPFLAENSAFPKMALQAKQDGKKDVSHSSPVDLKIPQVRGMDLSWESRTGDQYSYSSLVMGSQTESALSKKLRAILPKQSRKSMLDAGPDSWGSDAEQSTSGQPYPTSDQEGDPGSKQPRKKRGRYRQYNSEILEEAISVVMSGKMSVSKAQSIYGIPHSTLEYKVKERLGTLKNPPKKKMKLMRSEGPDVSVKIELDPQGEAAQSANESKNE", "soluble on expression in E. coli": "soluble"}
{"sequence": "SSVPPGSIIVSDWHRCPDSREFFSKILHKKRRRKFGLLEAPMMPPQMNVDLVRYKVFLSGKTGVGKSALAARLAGLDLPKMHYETTGIETTVVFWPVRLKESGRVLFFRFELWDCGESAMRRFDHMLLSCKEKVDAILFLFSFTDRGSFDDLTNQISRITEPSDRVVKLVVGTKFDLFMHTDVTESDVTHFQEVWGLPVFRVGGDVSAGLGEVAPLLNALAENLWHQDCMAASSVSISPQAALRETSSEIIV", "soluble on expression in E. coli": "not soluble"}
{"sequence": "SSWFRAAPENASPGDQDVFDEEADESLLAQREWQGHMRKRVQEGYRDGLDAGKALTLQRGFNQGYKEGADVIINYGLLRGTLSALLSWCHLHGNSSTLISKISNLLDTVDQCEECVLRRLKSVTSQPRVTDLLDAIEDMDLCHVVPSDQAKGDSNAEINTDSDSPNGMGCSHPEHCRPKEHAHLEKPSLSWILEQTSSLVKQLGVPADILQHLRQL", "soluble on expression in E. coli": "soluble"}
